Assay results as given in patent US20220056124A1 (University of Texas, published 2022).
Changes are numbered by the printed parent chain.

B1: ETP-mAb10 (antibody, V domains shown)
VH: QSLEESGGGLVQPEGSLTLTCTASGFSFSRGDYMCWVRQAPGKGLEWIGWIDVGRDNDSYYATWAKGRFSISKTSSTTVTLQMTSLTVADTATYFCARDLGFDTNLWGPGTLVTVSS
VL: ELDMTQTPASVSAAVGGTVTINCQASQNINSWLSWYQQKPGQPPKLLIYQASKLASGVPSRLKGSGSGTQFSLTISDLECADGATYYCQSYDYRSSGNGGNVFGGGTEVEIK
notes: Rabbit monoclonal
B2: ETP-mAb11 (antibody, V domains shown)
VH: QSVKESEGGLVQPEGSLTLTCTASGFSFSSSYYMCWVRQAPGKGLEWIGCIYLGNNENTAYTSWAKGRFTISKTSSTTVTLQMTSLTAADTTTYFCARDTSGGSDYYFGLWGPGTLVTISS
VL: ELDLTQTPASVEVAVGGTVTIKCQASHRIKTYLAWYQQKPGQPPKLLIYGASTLASGVPSRFKGSGSGTQFTLTISGVECADAATYYCQQGYSDGNVDNVFGGGTEVEIK
notes: Rabbit monoclonal
B3: ETP-mAb72 (antibody, V domains shown)
VH: B1 VH with M34V, R55S, D56V, N57I, D58E, S70T
VL: ELVMTQTPASVEAAVGGTVTINCQASESISIYLNWYQQKPGQPPKLLIYQASKLASGVPSRFKGSGSGTEFTLTISDLECADAATYYCQSHDYRIGRSDCNVFGGGTNVEIK
notes: Rabbit monoclonal
B4: ETP-mAb1 (antibody, V domains shown)
VH: QSVKESGGDLVKPGASLTLTCTASGIDFSAGYYMCWVRQAPGKGLELIACIYAGRSLNTFYASWAKGRFTISRASSTTVTLAMTSLTAADTATYFCARDGASSGYYFKLWGPGTLVTISS
VL: ELDMTQTPASVEVAVGGTVTIKCQASQSIGSNLAWYQQKPGQRPNVLIYDASNLASGVSSRFKGSGSGTQFTLTISGGECADAATYYCQQGYSDNYLDNAFGGGTEVVVK
notes: Rabbit monoclonal
B5: ETP-mAb2 (antibody, V domains shown)
VH: EQSLEESEGGLVQPEGSLTLTCTASGFSFSRSDYMCWVRQAPGKGLEWIGWIDPGYSDTYYASWAQGRTTISKASSTTVTLQMTSLTVADTATYFCARDLGFDSNLWGPGTLVTISS
VL: ELDLTQTPASVSEPVGGTVTIKCQASQSINSYLSWYQQKPGQPPKLLIYQASKLASGVPSRFKGSGSGTQFTLTISDLECADAATYYCQSYDYRISGSDGNVFGGGTNVEIK
notes: Rabbit monoclonal
B6: ETP-mAb4 (antibody, V domains shown)
VH: SSRVKESGGDLVKPGASLTLTCKASGFSFSSGYYICWVRQAPGKGLEWIACIYGGNNNPYYANWVNGRFTTSKTSSTTVTLQMTNLTGADTATYFCARKDINIGGAYELWGPGTLVTISS
VL: ELVMTQTPASVSEPVGGTVTINCQASQSISSSYLSWYQQKPGQPPKLLIYKASTLASGVPSRFKGSGSGTQFSLTISDLECADAATYYCQYSDWANSYGNAFGGGTEVVVK
notes: Rabbit monoclonal; also called parental rabbit ETPmAb4
B7: ETP-mAb6 (antibody, V domains shown)
VH: QSVKESEGGLVQPEGSLTLTCTASGFSFSNSDYMCWVRQAPGKGLEWIGWIDLVGNTNSYYASWAKGRFTISKTSSTTVALQMTSLTVADTATYFCARDLGFDTNLWGPGTLVTVSS
VL: ELDLTQTPASVSAAVGGTVTINCQASQNINSWLSWYQQKPGQRPKLLIYQASKLPSGVPSRFKGSGSGTQFTLTISDLECADAATYYCQSHDYRTTGSYGNVFGGGTEVEIK
notes: Rabbit monoclonal
B8: ETP-mAb4.1 (humanized ETP-hMab4) (antibody, human IgG1, V domains shown)
VH: EVQLLESGGGLVQPGGSLRLSCAASGFSFSSGYYICWVRQAPGKGLEWIACIYGGNNNPYYANWVNGRFTISRDNSKNTLYLQMNSLRAEDTAVYYCARKDINIGGAYELWGQGTLVTVSS
VL: DIQMTQSPSSLSASVGDRVTITCQASQSISSSYLSWYQQKPGKAPKLLIYKASTLASGVPSRFSGSGSGTDFTLTISSLQPEDFATYYCQYSDWANSYGNAFGGGTKVEIK
notes: Humanized; tied by the number 4.1; also called ENT-hMab4.1
B9: ETP-mAb4.2 (humanized ETP-hMab4) (antibody, human IgG1, V domains shown)
VH: B8 VH with N57S
VL: B8 VL
notes: also called ENT-hMab4.2
B10: ETP-mAb4.4 (humanized ETP-hMab4) (antibody, human IgG1, V domains shown)
VH: B8 VH with I71T
VL: B8 VL
notes: also called ENT-hMab4.4
B11: ETP-mAb4.5 (humanized ETP-hMab4) (antibody, human IgG1, V domains shown)
VH: B8 VH with S28T, N57S
VL: B8 VL
notes: also called ENT-hMab4.5

What follows are binders tested against T1, recombinant human endotrophin (77 amino acids at the carboxy-terminal of the COL6α3 chain, HEK293-expressed, … (human, UniProt P12111 3101-3177)) (assay: ELISA titration on plate-coated recombinant endotrophin, 4-parameter fit).
T1 construct: the His-tag was removed by enterokinase, leaving the 77 amino acid endotrophin free of tags; also called ETP; recombinant endotrophin protein
Description: (§1) Antibody-antigen ELISA Binding Assay. Corning 96-well EIA/RIA plates were coated overnight at 4° C. with HEK293 expressed recombinant endotrophin (1 μg/mL) and blocked for 2 hr at 37° C. with 5% non-fat milk. After washing with PBST for 3 times, 100 μL of serial diluted anti-endotrophin antibodies were added and incubated for 45 min at 37° C. Subsequently, the plates were washed with PBST and incubated for 30 min with anti-rabbit or anti-human F(ab′)2 HRP-conjugated antibody (Jackson ImmunoResearch Laboratories). The immunoreactions were developed with TMB substrates (Sigma) and stopped by the addition of 2 M sulfuric acid before reading the plate at 450 nm.
(§2) Binding of endotrophin by monoclonal antibodies was first screened by ELISA using supernatants collected from the B cell cultures (FIG. 10). ELISA titration was used to determine the binding affinity of a panel of monoclonal antibodies to endotrophin antigen (FIG. 11). Binding constants (EC₅₀) of a panel of monoclonal antibodies were estimated using four-parameter curve fitting with Prism GraphPad (Table 3).

T1 sequence (P12111 3101-3177 limits assumed): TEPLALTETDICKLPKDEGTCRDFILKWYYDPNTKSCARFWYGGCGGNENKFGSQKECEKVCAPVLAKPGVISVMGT

| Binder | EC50 [µg/mL] |
| --- | --- |
| B1 | 0.142 |
| B2 | 0.359 |
| B3 | 0.306 |
| B4 | 0.023 |
| B5 | 0.1 |
| B6 | 0.054 |
| B7 | 0.053 |

What follows are binders tested against T1, recombinant human endotrophin (77 amino …) (assay: BLI (Octet RED96)).

| Binder | Kd [nM] |
| --- | --- |
| B6 | 1.62 |

These binders were tested against T1, recombinant human endotrophin (77 amino …) (assay: BLI (Octet RED96), antibody on protein A biosensors, endotrophin 0.1-200 nM, 1:1 fit).
Description: Following a short baseline in kinetics buffer, the loaded biosensors were exposed to a series of recombinant endotrophin protein at 0.1-200 nM and background subtraction was used to correct for sensor drifting. All experiments were performed with shaking at 1,000 rpm. Background wavelength shifts were measured from reference biosensors that were loaded only with antibody. Kinetic sensorgrams for each antibody are shown in FIGS. 12A&B. ForteBio's data analysis software was used to fit the data to a 1:1 binding model to extract an association rate and dissociation rate.

| Binder | Kd [nM] | koff [s⁻¹] | kon [M⁻¹ s⁻¹] |
| --- | --- | --- | --- |
| B6 | 1.75 | 0.000249 | 142000 |
| B8 | 2.03 | 0.000235 | 116000 |
| B9 | 2.48 | 0.000305 | 123000 |
| B10 | 2.53 | 0.000328 | 130000 |
| B11 | 1.92 | 0.000223 | 116000 |

The binders below were run against T1, recombinant human endotrophin (77 amino …) (assay: ELISA titration, plate coated with recombinant endotrophin, serially diluted antibody, HRP secondary antibody, OD450).
Description: as §1, §2

| Binder | EC50 (read off the curve) [µg/mL] |
| --- | --- |
| B1 | ~0.1 |
| B2 | ~0.4 |
| B3 | ~0.3 |
| B4 | ~0.02 |
| B5 | ~0.1 |
| B6 | ~0.06 |
| B7 | ~0.06 |
